T1: ZmNDPK1 (nucleoside diphosphate kinase 1, homolog of human NM23-H2) (Zea mays, UniProt B4FK49 1-149)
T1 sequence: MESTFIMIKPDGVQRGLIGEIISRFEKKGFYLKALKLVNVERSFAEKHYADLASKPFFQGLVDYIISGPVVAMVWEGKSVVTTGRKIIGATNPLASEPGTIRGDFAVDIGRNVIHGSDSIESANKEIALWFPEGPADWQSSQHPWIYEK


Legend:
[1] = target: T1, ZmNDPK1 (nucleoside diphosphate kinase …); experiment: competition; 100-fold excess vs hex4_A5U, 20 mM KCl; Filter binding: oligos annealed in 10 mM TBA phosphate pH 7.5 + 20 mM KCl, 60 min incubation; competition 1 nM FAM probe, 100 nM competitor, 5 nM protein. FRET: 10 mM TBA pH 7.5 + 100 mM KCl or LiCl, 1 h at 4 °C, 0-1000 nM protein; conditions: protein: recombinant, chain copies: 6
[2] = target: T1, ZmNDPK1 (nucleoside diphosphate kinase …); experiment: filter binding; 20 mM KCl; Filter binding: oligos annealed in 10 mM TBA phosphate pH 7.5 + 20 mM KCl, 60 min incubation; competition 1 nM FAM probe, 100 nM competitor, 5 nM protein. FRET: 10 mM TBA pH 7.5 + 100 mM KCl or LiCl, 1 h at 4 °C, 0-1000 nM protein; conditions: protein: recombinant, chain copies: 6, label: 5' FAM (Kd)

Binder	binding signal ([1]; bulged G4, anti-h by CD)	binding signal ([1]; bulged G4, parallel)	other results
GGGTTTTGAATGGAGTATGAGGTAGGG (structured_DNA) [A5UBG]	50 % competition		
GGGTTTTGAATTTAGGAGTAGGGAGGG (structured_DNA) [A5UDH]		77 % competition	
GGGTTTTGAATGGAGTAGGAGTTAGGG (structured_DNA) [A5UBF]	23 % competition		
GGGTTTTGAATGGAGTATTAGGGAGGG (structured_DNA) [A5UBH]		85 % competition	
GGGTTTTGAATTGAGGATGAGGTAGGG (structured_DNA) [A5UCG]			binding signal ([1]; bulged G4, mixed by CD): 36 % competition
GGGTTTTGAAGGGATGAGGATTTAGGG (structured_DNA) [A5UAE]			Kd ([2]; bulged G4, anti-h by CD): 194 nM; binding signal ([1]; label: 5' FAM (Kd), bulged G4, anti-h by CD): 16 % competition
GGGTTTTGAATTGAGGAGGAGTTAGGG (structured_DNA) [A5UCF]		62 % competition	
GGGTTTTGAAGGGATTATTAGGGAGGG (structured_DNA) [A5UAH (canonical; trim_AH)]			Kd ([2]; canonical G4, parallel): 14.4 nM; binding signal ([1]; label: 5' FAM (Kd), canonical G4, parallel): 77 % competition
GGGTTTTGAAGGGATTATGAGGTAGGG (structured_DNA) [A5UAG]	40 % competition		
GGGTTTTGAATTGAGGATTAGGGAGGG (structured_DNA) [A5UCH]		76 % competition	
GGGTTTTGAAGGGATTAGGAGTTAGGG (structured_DNA) [A5UAF]	15 % competition		
GGGTTTTGAATTTATGAGGAGGGAGGG (structured_DNA) [A5UEH]		81 % competition	
GGGTTTTGAAGGGAGGAGTATTTAGGG (structured_DNA) [A5UAD]		73 % competition	

Reference: article PMC6572678, “Bulged and Canonical G-Quadruplex Conformations Determine NDPK Binding Specificity”
